According to article PMC11580892:

Biological target: T1, TRPV2-MBP (wild-type TRPV2 with an N-terminal maltose binding protein tag), Q9WUD2
T1 chain: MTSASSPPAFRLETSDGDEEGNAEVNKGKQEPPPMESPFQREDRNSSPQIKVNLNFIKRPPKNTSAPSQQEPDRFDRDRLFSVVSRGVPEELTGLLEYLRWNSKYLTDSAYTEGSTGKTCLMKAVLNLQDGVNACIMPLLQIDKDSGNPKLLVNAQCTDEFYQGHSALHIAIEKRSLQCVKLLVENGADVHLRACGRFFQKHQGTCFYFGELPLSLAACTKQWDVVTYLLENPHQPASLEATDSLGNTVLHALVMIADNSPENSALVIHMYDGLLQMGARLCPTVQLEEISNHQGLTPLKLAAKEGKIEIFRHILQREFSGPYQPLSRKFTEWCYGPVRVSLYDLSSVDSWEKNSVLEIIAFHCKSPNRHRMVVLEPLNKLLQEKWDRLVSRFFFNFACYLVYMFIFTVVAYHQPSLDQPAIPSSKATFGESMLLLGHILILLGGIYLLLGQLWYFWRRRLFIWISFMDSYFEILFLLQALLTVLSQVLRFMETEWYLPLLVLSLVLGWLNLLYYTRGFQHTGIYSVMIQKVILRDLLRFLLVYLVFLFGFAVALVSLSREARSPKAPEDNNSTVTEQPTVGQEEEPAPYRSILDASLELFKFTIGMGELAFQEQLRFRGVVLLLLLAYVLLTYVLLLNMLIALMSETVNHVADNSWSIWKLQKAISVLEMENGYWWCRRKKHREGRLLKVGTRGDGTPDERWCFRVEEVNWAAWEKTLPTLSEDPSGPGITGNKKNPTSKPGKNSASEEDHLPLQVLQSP
Test: SEC
Conditions: remark: other sources report otherwise

B1: TRPV2-MBP (wild-type TRPV2 with an N-terminal maltose binding protein tag), Q9WUD2 1-761 (natural protein)
chain: T1 chain
A stoichiometry N of 4 was found for B1 in this work.
